Tests used:
[1] = Validation of the ability to cross the BBB: level of fusion protein in hippocampal tissue homogenate by HSA ELISA; type: in vivo; settings: mice, 1 μm/kg single intravenous injection, hippocampal tissue 6 h after administration
Procedure: Validation of the Ability to Across BBB of PTD-HSA-L-α-MSH
HSA Elisa Kit (cygnustechnologies).
10 mice (18-22 g) were used in the experiment, and were purchased from Laboratory Animal Center of Lanzhou University.
Mice were housed in groups of at most five animals per cage with clean water and food available ad libitum. PTD-HSA-L-α-MSH or HSA-L-α-MSH were given at a dosage of 1 μm/kg through a single intravenous injection in 150 μL volume. Mice were anesthetized 6 h after drug administration. The hippocampal tissue was harvest and homogenized immediately. Finally the level of PTD-HSA-L-α-MSH or HSA-L-α-MSH in hippocampal tissue homogenate was tested by ELISA.

TNF-α = test: Experimental brain inflammation of mouse induced by LPS: TNF-α in hippocampal tissue homogenate by ELISA; type: in vivo; settings: mice
From the text: Neuroprotection of TAT-HSA-α-MSH on Experimental Brain Inflammation in Mice
TNF-a Elisa Kit (Dakewei, China).
20 mice (18-22 g) were used in the experiment, and were purchased from Laboratory Animal Center of Lanzhou University.
Lipopolysaccharide (LPS), a gram negative bacterial endotoxin, is the cell wall component of gram negative bacteria. Within the CNS, LPS challenge triggers central inflammatory responses, which results in releasing of proinflammatory mediators such as TNF-α. Therefore, to determine whether the described PTD-HSA-L-α-MSH can inhibit the production of pro-inflammatory factors in vivo, experimental brain inflammation of mouse induced by LPS was established, in which TNF-α was analyzed to detect the efficacy of PTD-HSA-L-α-MSH.
Mice were housed in groups of at most five animals per cage with clean water and food available ad libitum. The mice in control group were injected with 150 μL saline two times. The mice in LPS group were injected with 150 μL LPS at the dose of 5 mg/kg, and then injected with 150 μL saline. The mice in PTD-HSA-L-α-MSH+LPS group were injected with 150 μL LPS at the dose of 5 mg/kg, and then injected with 150 μL PTD-HSA-L-α-MSH at the dose of 1 μm/kg. The mice in α-MSH+LPS group were injected with 150 μL LPS at the dose of 5 mg/kg, and then injected with 150 μL α-MSH at the dose of 1 μm/kg. Mice were anesthetized 2 h after drug administration. […]

[2] = rat, iv administration, full length peptide; cited from earlier work

Substance | PTD-HSA-L-α-MSH(ng/mL), level in hippocampal tissue homogenate tested by ELISA [1] | TNF-α (pg/mg protein) in hippocampal tissues tested by ELISA (TNF-α; LPS 5 mg/kg then substance 1 μm/kg, hippocampal tissue 2 h after administration) | effect on TNF-α increase compared with LPS group (TNF-α; LPS 5 mg/kg, single dose of 1 μm/kg intraperitoneally) | half-life [2]
HSA-L-α-MSH: fusion protein of HSA, linker and α-MSH without PTD; amino acid sequence SEQ ID NO:10, about 69 KDa; comparator | 0.06 ± 0.02 ng/mL | – | – | –
α-Melanocyte stimulating hormone [α-MSH, reference compound] | – | 155.8 ± 10.3 pg/mg protein | could not be suppressed | a few minutes

— patent US11459369B2, “Fusion protein for alpha-melanocyte stimulating hormone and preparation method and use thereof” (LANZHOU UNIVERSITY, priority 2015, dated 2022)
